In the supplement of paper PMC12764529:
± gives the half width of the 95% confidence interval.

Legend:
[1] = folding stability dG unfold from chymotrypsin proteolysis; higher = more stable
Summary of the method: (§1)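 Mini-proteins designed to be under 80 residues and free of cysteine were carried in a PA-tagged cDNA display construct and digested with trypsin and with chymotrypsin. Each protease was applied at 11 threefold-diluted concentrations, alongside a no-protease condition, before sequencing. K50 came from Bayesian fitting of the sequencing counts, and unfolding free energy was obtained by comparing it with a sequence-predicted unfolded-state K50 and a shared folded-state K50, for each protease separately or for both together. Designs were retained only if their AlphaFold2 dimer inter-PAE exceeded 15.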

[2] = folding stability dG unfold (combined trypsin and chymotrypsin); higher = more stable
Summary of the method: as §1

[3] = folding stability dG unfold from trypsin proteolysis; higher = more stable
Summary of the method: as §1

Sequence	folding stability dG unfold [1] [kcal/mol]	folding stability dG unfold [2] [kcal/mol]	folding stability dG unfold [3] [kcal/mol]
SAGGSGSTTPETRTEPSPGGTTTEVRTDVHTLPDAETVEITVTRGGRTITLTASPAEAATLRVTPGASAGGS [r8_257_JUSTAS]	-0.614 ± 0.62	-0.436 ± 0.51	-0.555 ± 0.61
SAGGSAGGSAGGPPVTLLVVVRNEDGSLYLVRVEFDLETNEVKVEVFTLDDLKNLPEELSAGGSAGGSAGGS [r10_1077_TrROS_Hall]	3.66 ± 0.075	3.26 ± 0.25	2.14 ± 0.14
SAMANITANYYDPETGKVLAKDLPLPNGDEVHVTPNPVTGTVTVEWDGPEEALEVIKAALPPDWKIYPLSAG [r14_252_TrMRF]	-0.0765 ± 0.16	0.362 ± 0.18	0.712 ± 0.035
SAGPFILVKFVTPDGRPLYYVIEIPESEEPEKLTLEQALEVAEAIAKALASKGGFEVKEVKIVSPEEFSAGG [r19_27_TrMRF]	3.802 ± 0.023	3.66 ± 0.057	3.43 ± 0.083
SAGGSAGGSAKIWIILKDADEARDRIEELFGPGVRIEPVNIQRWDGKVYVMIEIEIPPNMTSAGGSAGGSAG [r3_87_TrROS]	2.4 ± 0.051	2.28 ± 0.054	2.1 ± 0.055
SAGGEGKEDKKIKVLFINVPVDKPDLLLKLAKEIIEKKEYDIIIVDHPENYKALKEAFPEYDIPIILGSAGG [r13_353_TrMRF]	3.673 ± 0.022	3.29 ± 0.069	2.04 ± 0.064
SAGGSAGGSAGKTYTFRVRIVDEETGEEKEIEVTAKSEEEAKKAAEELKKKYPNLKVELESAGGSAGGSAGG [r11_233_TrROS_Hall]	3.24 ± 0.036	3.22 ± 0.14	2.98 ± 0.13
SDIKIENYERNPGNGMYMWTVKLPDDGKKIEIMYPPGGIYISVEHPGKKKMFPFKSWEDMLDQVKDLLKNSA [r9_527_TrROS]	1.79 ± 0.23	1.36 ± 0.26	1.24 ± 0.045
SAGGSAIWIPADEIRELAKEPGLEVEKEPQPDGMLHFTIKNPKNGKRITIVVWDPENGWWHIMPIPSAGGSA [r15_442_TrROS]	0.854 ± 0.098	0.928 ± 0.083	0.947 ± 0.019
SAGMKKVKIETTEFREFEGGEREIVMKVYKPDGSEVATVVLPFPPDLSEEEMRERAEAEAKKLAEELGLSAG [r5_697_JUSTAS]	0.579 ± 0.17	0.636 ± 0.21	0.581 ± 0.094
SAGMKVTTKTYTLTLTLPDGTRELKVTFTTPPDGYTATITDPNSSKVITLPFSSEEEARSAIEAIAARLSAG [r5_480_JUSTAS]	2.7 ± 0.06	2.62 ± 0.092	2.48 ± 0.036
SAGGMEEVIKELAKSLGVTKILPESEAKKLSSSVPNALAAVKLPDGSYVLIKRNSDGSVSSIKYKLESAGGS [r16_686_JUSTAS]	1.83 ± 0.087	1.54 ± 0.1	1.14 ± 0.018
SAGGSAGGSAGGLPNIPGFVLLETYSETFNVPLPENRTATITKTLILHPNALLESYSINPSAGGSAGGSAGG [r7_945_TrMRF]	-0.353 ± 0.23	-0.251 ± 0.27	-0.198 ± 0.27
SAGGSAGGEELAKRLKELFPNAKIVEIKYDKKTKKVTIKVELEPGMSEEQRERLRKLLEELLKKSAGGSAGG [r6_97_TrROS_Hall]	2.85 ± 0.099	3.07 ± 0.15	3.13 ± 0.17
SAGGSAGPDPKNKKIKVKVETFYLEDFGLKVEKIYIEGTGKPLLVFYFPDGSKLIINEDGTVKLIESAGGSA [r15_617_TrMRF]	3.33 ± 0.14	2.89 ± 0.23	1.79 ± 0.35
SAGGTVEEIKEKLEEAGWEVVKVEKKEDGSITVTVRRKDGKELKIEIDLKNEEVRKALAELLPEEELSAGGS [r16_821_TrROS_Hall]	3.22 ± 0.13	2.95 ± 0.15	2.42 ± 0.19
SAGGKKKKLVIKDKKTNKYYEIENAKEIVKIEKVKGKDGKTYYVIYFKKTKKKIVIKTKEDLEKALKSAGGS [r8_206_TrROS_Hall]	1.18 ± 0.38	1.23 ± 0.29	1.26 ± 0.24
SAGGSAGGAPQGSTSSLTDPSTGLRYASTNPPGTSSSFTFPPSVSPEEVAARLRAQGVAGLNLSSAGGSAGG [r6_83_JUSTAS]	0.339 ± 0.073	0.0679 ± 0.081	-0.81 ± 0.35
SAPKIDSISIMWPGNHWYISIWYPDKNGEPMKEVMFPFESPEDLKDQIEELSPPGDVTVDIYPMPPDAFSAG [r14_964_TrROS]	1.54 ± 0.036	1.51 ± 0.098	1.38 ± 0.047
SAGGSMVIPTKVSSLEEAKQVAEEILKKLGRPLTLDDVSFDPEKFKAELKPDTPVVVKVKDPSGVTLGASAG [r5_503_JUSTAS]	0.458 ± 0.15	0.409 ± 0.16	0.457 ± 0.032
SAGGSARVVILPDGYLLVEVDGKPFLFGPNDEVEIEEEGDELILRLRLRDKDGKEVGEFPFRFRLESAGGSA [r15_424_TrMRF]	3.026 ± 0.016	2.9 ± 0.055	2.71 ± 0.039

Sequence	folding stability dG unfold [1] [kcal/mol]	folding stability dG unfold [2] [kcal/mol]	folding stability dG unfold [3] [kcal/mol]
SADLAAELEEGGFVVTITETVVSVTPQTLEKDSFVVEKDVVTTITVTPPPVAPPPPDPANLRDAAGAPVSAG [r14_569_JUSTAS]	1.01 ± 0.023	0.798 ± 0.084	-0.0411 ± 0.041
SMPKKIIVLEVDEEEIKEFLEKLELGEDTEVKILLSFPDGKTALLEIGPNEIKSIKPIDAIPEKAYIVIASA [r9_849_TrMRF]	0.755 ± 0.14	1.08 ± 0.2	1.71 ± 0.14
SAGGSAGGSDPTAPVITTVPFPSGAVLTITTYPDSVTITYPSPGTTYTVPASAPIPITYQPALSAGGSAGGS [r12_227_JUSTAS]	0.0869 ± 0.12	0.488 ± 0.067	0.674 ± 0.015
SEITIYNKGKPPPEELLEALKKAPGFPPEDLRKNTKVEPNKDGPQITIPPEQAEQMSKRNPRIMEAIRELSA [r9_160_TrROS]	1.75 ± 0.37	1.44 ± 0.48	1.64 ± 0.098
SAGGSAGGSAGGMTPIEVTVELEEPTRRTTRRFTFTSPEEVEAYLKALPASWRVTRVELRSAGGSAGGSAGG [r17_410_JUSTAS]	1.82 ± 0.15	1.66 ± 0.075	1.58 ± 0.038
SAGGMELTIPLPNGKLLKIKVEEVKAEPVLVEFELRDANGKLIDTIPAPSGFKISIRFSVEIYDPNEYSAGG [r13_848_TrMRF]	3.908 ± 0.032	3.61 ± 0.077	2.92 ± 0.091
SAGMKKKITVKVKVKTEEEAEKLAEELEKELGLKVTVEKNEETGVYTITVEVSPEAVEALKKAGVEIESAGG [r19_306_TrROS_Hall]	1.92 ± 0.083	1.86 ± 0.28	1.93 ± 0.33
SAGGMVEIELVPMSEEELKKLREELPENEILIVVKEDGLVLIVRVEKSEEEAEKLAEELRKLLEELPSAGGS [r16_311_TrROS_Hall]	0.935 ± 0.14	1.69 ± 0.23	2.05 ± 0.17
SAGGSAMPLEELKKVTITLSFYNENGELVAEMTLEYDEETDVFTMTVKVRYNGKTYTVEMEFKLLPSAGGSA [r15_278_TrROS_Hall]	5.29 ± 0.2	5.23 ± 0.32	4.5 ± 0.56
SMIKPGDTVTIVLKVKPEDLEKIREAVEELLRELFPDVEVESVEVNPEEENYVVITVRVDGKEITLVIERSA [r9_1079_TrROS_Hall]	2.262 ± 0.021	2.5 ± 0.041	2.78 ± 0.048
SAGGSAGGKKEIKIYLVSDLPEEDAIETAEKIKKGLAEELGVSPEELNITVEVAILDPENLELNPESAGGSA [r15_918_TrMRF]	0.0161 ± 0.048	0.1 ± 0.15	0.179 ± 0.049
SGSSYLPLEDVKTEWKKNPNSDVYNYTTFLQTPSGEPISVTYDPKTGKITFNLPPGTTWRPGKKSEVKLESA [r9_509_JUSTAS]	1.13 ± 0.23	0.864 ± 0.16	0.124 ± 0.16
SAGSMLFDPNGVLREVSVTPDPSTGTTVTTTLVQWPVDDGNGNSVLERITTTTSPSGTVTTSTEVRPAPSAG [r5_303_JUSTAS]	0.0881 ± 0.034	0.138 ± 0.085	0.182 ± 0.027
SAPLKIDLDIEPIPPGDKVRFNARITYPDGHPIRIPFEIYVPPDEIVIKFPIQDPKNGEPIAPLTFVIKSAG [r14_670_TrROS]	1.97 ± 0.2	1.67 ± 0.19	1.53 ± 0.046
SAGGSAGGSAEDVVLKVKIEIPSSDGTLLEIDEAIYNPKPGTLHFKIRSPDGSEFEIEIPLDSAGGSAGGSA [r18_370_TrMRF]	1.44 ± 0.13	1.12 ± 0.082	0.725 ± 0.033
SAGGSAGGSKLGVFEVGGKRYAVKVTDKNGKELTLAIPPELLKKLPKNLKVEVKEVKPGEPIPSAGGSAGGS [r12_419_TrMRF]	0.738 ± 0.23	0.635 ± 0.15	0.218 ± 0.16
SAGGSAGGSAGMRLVTITLTTEKPIFDENGNPIGTTTRTVVLEREVPEPEVPEVPLYQALSAGGSAGGSAGG [r11_131_JUSTAS]	0.189 ± 0.18	0.261 ± 0.17	0.304 ± 0.18
SAGGSAGGSAGGMKLVTLPDGKTYPFTSLEEFKEALLKETGKPVDLKNPVIYPVPPGLSSAGGSAGGSAGGS [r10_62_JUSTAS]	0.959 ± 0.084	0.99 ± 0.22	0.401 ± 0.14
SAGGSEKVKIEIPFRHPEDGEPIFPVRIEYEKPPNGDYKLDIEIDNFPPGMKPSPAAKDAIEEFIKSAGGSA [r2_7_TrROS]	1.29 ± 0.052	0.956 ± 0.19	0.588 ± 0.07
SAGGSSYSVAQSPGPARLYSVPQPDGRVVEVDVEELPGGLLRVRVPDDPVPRLFPASLSLADIVSLSAGGSA [r2_338_JUSTAS]	0.933 ± 0.046	0.866 ± 0.032	0.644 ± 0.02
SAGGSAGGDIEVRPVGVVPTPDGRLVRVEEVTFPETGRTLLVAVDLEPGRVYVFDPETGEWREESAGGSAGG [r6_114_TrMRF]	1.76 ± 0.02	1.41 ± 0.075	0.502 ± 0.091
